From the supplement of paper PMC9732359
± gives the uncertainty stated by the source.

Assay: protein stability index of a GFP-peptide fusion (yeast GPS) (PSI 1-4); higher = more stable; sorted into four equal gates, so the index is relative within each strain
How it was run: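 Plasmids isolated from each sorting gate were PCR-amplified and Illumina-sequenced, and barcodes assigned the reads to strains. The gates, four of equal size, were set by GFP/Cherry fluorescence ratio on mid-log cultures in leucine-free medium. These cultures were yeast carrying a pooled library of tiled 17-residue yeast protein peptides fused downstream of GFP on a plasmid that also expresses Cherry. The protein stability index is the sum of every gate's read frequency times its gate number.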

## SKLKKETASFIPTKESL [YIL149C/MLP2]
doa10∆
  protein stability index: 2.74 ± 0.072
pdr5∆
  protein stability index: 3.15 ± 0.098
san1∆
  protein stability index: 2.44 ± 0.15
ubr1∆
  protein stability index: 2.57 ± 0.057

## LKELRIDNSPQAISYLH [GRR1]
doa10∆
  protein stability index: 2.17 ± 0.054
pdr5∆
  protein stability index: 2.55 ± 0.051
san1∆
  protein stability index: 2.08 ± 0.057
ubr1∆
  protein stability index: 2.4 ± 0.034

## EAFNDGNENFEDFDVEH [RPO26]
doa10∆
  protein stability index: 2.97 ± 0.079
pdr5∆
  protein stability index: 3.15 ± 0.086
san1∆
  protein stability index: 2.92 ± 0.085
ubr1∆
  protein stability index: 3.21 ± 0.079

## ITKLNKEIRAFDKLLNI [SRB4]
doa10∆
  protein stability index: 3.41 ± 0.098
pdr5∆
  protein stability index: 3.44 ± 0.088
san1∆
  protein stability index: 3.36 ± 0.077
ubr1∆
  protein stability index: 3.15 ± 0.12

## NPLMYSGGNNTATIINN [PCI8]
doa10∆
  protein stability index: 2.93 ± 0.064
pdr5∆
  protein stability index: 2.9 ± 0.057
san1∆
  protein stability index: 3.12 ± 0.05
ubr1∆
  protein stability index: 3.11 ± 0.045

## TVPELEIPTQIYRTTRQ [ARP9]
doa10∆
  protein stability index: 2.39 ± 0.076
pdr5∆
  protein stability index: 2.8 ± 0.066
san1∆
  protein stability index: 2.35 ± 0.08
ubr1∆
  protein stability index: 2.83 ± 0.067

## KKRFDEFMAGFNIISMT [SMC4]
doa10∆
  protein stability index: 2.64 ± 0.097
pdr5∆
  protein stability index: 2.52 ± 0.11
san1∆
  protein stability index: 2.87 ± 0.096
ubr1∆
  protein stability index: 2.14 ± 0.072

## EGNQGSLQEDVSFDFNG [MED8]
doa10∆
  protein stability index: 3.17 ± 0.12
pdr5∆
  protein stability index: 3.41 ± 0.085
san1∆
  protein stability index: 3.23 ± 0.062
ubr1∆
  protein stability index: 3.2 ± 0.07

## ESSINTHPHAADGSSYM [SKI6]
doa10∆
  protein stability index: 2.98 ± 0.047
pdr5∆
  protein stability index: 3.22 ± 0.039
san1∆
  protein stability index: 3 ± 0.035
ubr1∆
  protein stability index: 3.05 ± 0.036

## HLAICLDIINPGSVEEV [YDL116W/NUP84]
doa10∆
  protein stability index: 2.66 ± 0.098
pdr5∆
  protein stability index: 2.77 ± 0.089
san1∆
  protein stability index: 2.46 ± 0.13
ubr1∆
  protein stability index: 3.45 ± 0.088

## ATYMDNDIAGQPQALQK [RPO21]
doa10∆
  protein stability index: 2.56 ± 0.077
pdr5∆
  protein stability index: 2.49 ± 0.078
san1∆
  protein stability index: 2.5 ± 0.073
ubr1∆
  protein stability index: 2.7 ± 0.051

## AASKVKLEEESKRGNDK [RPC53]
doa10∆
  protein stability index: 3.27 ± 0.089
pdr5∆
  protein stability index: 3.41 ± 0.098
san1∆
  protein stability index: 3.38 ± 0.071
ubr1∆
  protein stability index: 3.25 ± 0.064

## FNTNSSFTPSTVPNINF [YOR098C/NUP1]
doa10∆
  protein stability index: 2.48 ± 0.04
pdr5∆
  protein stability index: 2.42 ± 0.032
san1∆
  protein stability index: 2.54 ± 0.04
ubr1∆
  protein stability index: 2.77 ± 0.029

## SLDIRHDFIKGLIMLNL [NUT1]
doa10∆
  protein stability index: 2.18 ± 0.064
pdr5∆
  protein stability index: 1.56 ± 0.068
san1∆
  protein stability index: 1.31 ± 0.13
ubr1∆
  protein stability index: 1.72 ± 0.057

## EIENATKDIFPLQNIHV [RPS1A]
doa10∆
  protein stability index: 2.1 ± 0.086
pdr5∆
  protein stability index: 2.36 ± 0.27
san1∆
  protein stability index: 1.11 ± 0.29
ubr1∆
  protein stability index: 2.25 ± 0.083

## AKLLQENDTTLVKTKEL [FAS1]
doa10∆
  protein stability index: 2.66 ± 0.14
pdr5∆
  protein stability index: 2.08 ± 0.27

## QNDFLFSVGESLSVVAG [ECM29]
doa10∆
  protein stability index: 2.61 ± 0.065
pdr5∆
  protein stability index: 3.08 ± 0.12
san1∆
  protein stability index: 2.92 ± 0.11
ubr1∆
  protein stability index: 2.71 ± 0.061

## GLVKQHLDSFNYFVDTD [RET1]
doa10∆
  protein stability index: 3.46 ± 0.17
pdr5∆
  protein stability index: 3.05 ± 0.097
san1∆
  protein stability index: 2.97 ± 0.11
ubr1∆
  protein stability index: 3.36 ± 0.075

## HKKIKVAQPDSLRETNT [SIR2]
doa10∆
  protein stability index: 3.33 ± 0.13
pdr5∆
  protein stability index: 3.25 ± 0.11
san1∆
  protein stability index: 2.6 ± 0.092
ubr1∆
  protein stability index: 3.2 ± 0.053

## LLSLINSTHLLPLQPIE [SNF12]
doa10∆
  protein stability index: 2.34 ± 0.053
pdr5∆
  protein stability index: 2.46 ± 0.05
san1∆
  protein stability index: 3.04 ± 0.052
ubr1∆
  protein stability index: 2.4 ± 0.04

## IDRNLKCQTCQEGMNEC [RPO21]
doa10∆
  protein stability index: 2.48 ± 0.086
pdr5∆
  protein stability index: 1.38 ± 0.061
san1∆
  protein stability index: 2.56 ± 0.079
ubr1∆
  protein stability index: 2.37 ± 0.079

## ITRFGLSKMRDSVLQLA [RPO31]
doa10∆
  protein stability index: 3.32 ± 0.14
pdr5∆
  protein stability index: 2.96 ± 0.14
san1∆
  protein stability index: 3.17 ± 0.08
ubr1∆
  protein stability index: 3.44 ± 0.15

## NAIRIGELFLNESWKSS [SRP72]
doa10∆
  protein stability index: 3.39 ± 0.14
pdr5∆
  protein stability index: 3.21 ± 0.083
san1∆
  protein stability index: 2.62 ± 0.14
ubr1∆
  protein stability index: 3.12 ± 0.062

## MQPFDSGHDDLVHDVVY [YGL100W/SEH1]
doa10∆
  protein stability index: 3.23 ± 0.1
pdr5∆
  protein stability index: 3.43 ± 0.11
san1∆
  protein stability index: 3.13 ± 0.084
ubr1∆
  protein stability index: 3.26 ± 0.093

## IKRTDEGGEAEFIFGTY [ARP7]
doa10∆
  protein stability index: 3.35 ± 0.093
pdr5∆
  protein stability index: 3.3 ± 0.11
san1∆
  protein stability index: 3.37 ± 0.056
ubr1∆
  protein stability index: 3.36 ± 0.045

## LMKCCHEAYSIIEKITD [RRP45]
doa10∆
  protein stability index: 2.56 ± 0.067
pdr5∆
  protein stability index: 2.68 ± 0.09
san1∆
  protein stability index: 2.56 ± 0.086
ubr1∆
  protein stability index: 2.52 ± 0.18

## KIDSHVVLSFSGLNADS [PRE6]
doa10∆
  protein stability index: 1.8 ± 0.062
pdr5∆
  protein stability index: 1.72 ± 0.069
san1∆
  protein stability index: 2.48 ± 0.073
ubr1∆
  protein stability index: 2.19 ± 0.054

## KLYDKTENDIKALQSIG [RPT4]
doa10∆
  protein stability index: 2.65 ± 0.18
pdr5∆
  protein stability index: 2.62 ± 0.2
san1∆
  protein stability index: 1.87 ± 0.22
ubr1∆
  protein stability index: 2.4 ± 0.22

## FVCLSCSHIFTSDQKNK [RPB9]
doa10∆
  protein stability index: 2.43 ± 0.082
pdr5∆
  protein stability index: 2.28 ± 0.093
san1∆
  protein stability index: 2.04 ± 0.11
ubr1∆
  protein stability index: 2.55 ± 0.066

## CFVLGIASMSTVRASSL [SMC2]
doa10∆
  protein stability index: 1.51 ± 0.056
pdr5∆
  protein stability index: 1.86 ± 0.055
san1∆
  protein stability index: 1.83 ± 0.072
ubr1∆
  protein stability index: 1.94 ± 0.065

## DNTSHDEQDDDNVNSTT [BRN1]
doa10∆
  protein stability index: 3 ± 0.073
pdr5∆
  protein stability index: 3.19 ± 0.088
san1∆
  protein stability index: 3.17 ± 0.1
ubr1∆
  protein stability index: 3.23 ± 0.062

## LELGSCFSQENIEEMAR [SIN4]
doa10∆
  protein stability index: 2.02 ± 0.06
pdr5∆
  protein stability index: 2.21 ± 0.073
san1∆
  protein stability index: 2.64 ± 0.078
ubr1∆
  protein stability index: 2.64 ± 0.073

## SLLDKPDEAIEKVFNAY [FAS1]
doa10∆
  protein stability index: 3.15 ± 0.085
pdr5∆
  protein stability index: 3.34 ± 0.099
san1∆
  protein stability index: 3.2 ± 0.066
ubr1∆
  protein stability index: 3.29 ± 0.078

## EEKEEENGDEDEDEDED [QCR6]
doa10∆
  protein stability index: 3.68 ± 0.17
pdr5∆
  protein stability index: 3.34 ± 0.27
san1∆
  protein stability index: 3.27 ± 0.084
ubr1∆
  protein stability index: 3.64 ± 0.08

## DCNSALDQLLVLEKKTR [RPN5]
doa10∆
  protein stability index: 2.31 ± 0.068
pdr5∆
  protein stability index: 2.31 ± 0.1
san1∆
  protein stability index: 2.22 ± 0.058
ubr1∆
  protein stability index: 2.44 ± 0.083

## YLFHNDRIIHTWRTQLA [ECM29]
doa10∆
  protein stability index: 1.55 ± 0.05
pdr5∆
  protein stability index: 1.77 ± 0.042
san1∆
  protein stability index: 1.47 ± 0.064
ubr1∆
  protein stability index: 1.91 ± 0.039

## DCMIAHGAASFLKERLM [RPB2]
doa10∆
  protein stability index: 3.03 ± 0.088
pdr5∆
  protein stability index: 2.54 ± 0.068
san1∆
  protein stability index: 2.13 ± 0.1
ubr1∆
  protein stability index: 2.09 ± 0.066

## SARGSYLRVSFKNTRET [RPL17A]
doa10∆
  protein stability index: 3.1 ± 0.048
pdr5∆
  protein stability index: 2.82 ± 0.056
san1∆
  protein stability index: 2.77 ± 0.051
ubr1∆
  protein stability index: 2.86 ± 0.06

## KKSKNGTISKTGKKNKV [SRP14]
doa10∆
  protein stability index: 2.93 ± 0.11
pdr5∆
  protein stability index: 3.26 ± 0.089
san1∆
  protein stability index: 3.14 ± 0.059
ubr1∆
  protein stability index: 3.51 ± 0.057

## MNAGGLFGAKPQNTTAT [YGR119C/NUP57]
doa10∆
  protein stability index: 2.43 ± 0.049
pdr5∆
  protein stability index: 3.29 ± 0.059
san1∆
  protein stability index: 3.35 ± 0.058
ubr1∆
  protein stability index: 2.72 ± 0.059

## NTSAATVHTATSSSIIL [SSN2]
doa10∆
  protein stability index: 2.41 ± 0.053
pdr5∆
  protein stability index: 2.761 ± 0.026
san1∆
  protein stability index: 2.61 ± 0.045
ubr1∆
  protein stability index: 2.65 ± 0.038

## TPAEMSRPATTTRNGFM [FAS2]
doa10∆
  protein stability index: 2.35 ± 0.038
pdr5∆
  protein stability index: 2.57 ± 0.041
san1∆
  protein stability index: 2.52 ± 0.05
ubr1∆
  protein stability index: 2.52 ± 0.042

## ISIKDNKLVMKSKFNKS [GAL11]
doa10∆
  protein stability index: 2.51 ± 0.057
pdr5∆
  protein stability index: 2.59 ± 0.064
san1∆
  protein stability index: 3.2 ± 0.047
ubr1∆
  protein stability index: 2.08 ± 0.068

## AKPFQVTKEYFQDVYDL [FAS1]
doa10∆
  protein stability index: 2.96 ± 0.12
pdr5∆
  protein stability index: 2.81 ± 0.074
san1∆
  protein stability index: 2.4 ± 0.088
ubr1∆
  protein stability index: 2.72 ± 0.063

## GETMWVPIKSSKSGRIF [RPN13]
doa10∆
  protein stability index: 2.3 ± 0.11
pdr5∆
  protein stability index: 2.6 ± 0.15
san1∆
  protein stability index: 2.81 ± 0.068

## QGEVGAVFIVPKILIRE [SWP82]
doa10∆
  protein stability index: 2.03 ± 0.14
pdr5∆
  protein stability index: 2.36 ± 0.21
san1∆
  protein stability index: 1.69 ± 0.15
ubr1∆
  protein stability index: 2.13 ± 0.2

## SVLQLFQSVQLNINNPN [SMC2]
doa10∆
  protein stability index: 1.88 ± 0.049
pdr5∆
  protein stability index: 1.89 ± 0.045
san1∆
  protein stability index: 1.68 ± 0.058
ubr1∆
  protein stability index: 1.48 ± 0.04

## HMISQEGIKETQAKRIF [SWI1]
doa10∆
  protein stability index: 3.1 ± 0.17
pdr5∆
  protein stability index: 3.53 ± 0.21
san1∆
  protein stability index: 3.19 ± 0.11
ubr1∆
  protein stability index: 3.22 ± 0.13

## SYDKTVKLWEEDPDQEE [YGL100W/SEH1]
doa10∆
  protein stability index: 3.32 ± 0.12
pdr5∆
  protein stability index: 3.21 ± 0.079
san1∆
  protein stability index: 3.3 ± 0.044
ubr1∆
  protein stability index: 3.29 ± 0.06

## CSIEPIAAKLINSGLYS [YML103C/NUP188]
doa10∆
  protein stability index: 1.77 ± 0.066
pdr5∆
  protein stability index: 1.29 ± 0.065
san1∆
  protein stability index: 1.67 ± 0.12
ubr1∆
  protein stability index: 1.19 ± 0.062
